Laboratory results taken from the supplement of paper PMC10567573.

B1: CLPTM1 (parent)
chain: LGCYAVYSLLYLEHKGWYSWVLSM

Variants of: B1
Assay: protein stability index of a GFP-peptide fusion (GPS, HEK-293T) (PSI 1-6); higher = more stable
Details: c terminus: a fixed tail appended
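Further: lentivirally expressed fusions sorted by FACS into six bins by GFP to DsRed ratio, PSI derived from sequencing read proportions per bin multiplied by bin number.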

Variant | protein stability index
LGCYAVYILLYLEHKGWYSWVLSM | 3.15
LGCYAVYNLLYLEHKGWYSWVLSM | 4.1
LGCYAVYWLLYLEHKGWYSWVLSM | 1.43
LGCYAVYALLYLEHKGWYSWVLSM | 2.25
LGCYAVYELLYLEHKGWYSWVLSM | 1.27
LGCYAVYVLLYLEHKGWYSWVLSM | 1.96
LGCYAVYGLLYLEHKGWYSWVLSM | 4.38
LGCYAVYHLLYLEHKGWYSWVLSM | 2.55
LGCYAVYCLLYLEHKGWYSWVLSM | 2.96
LGCYAVYTLLYLEHKGWYSWVLSM | 2.09
LGCYAVYKLLYLEHKGWYSWVLSM | 3.64
LGCYAVYPLLYLEHKGWYSWVLSM | 3.57
LGCYAVYSKLYLEHKGWYSWVLSM | 2.65
LGCYAVYSQLYLEHKGWYSWVLSM | 2.67
LGCYAVYSFLYLEHKGWYSWVLSM | 4.07
LGCYAVYSMLYLEHKGWYSWVLSM | 2.92
LGCYAVYSGLYLEHKGWYSWVLSM | 1.77
LGCYAVYSELYLEHKGWYSWVLSM | 2.13
LGCYAVYSYLYLEHKGWYSWVLSM | 2.36
LGCYAVYSSLYLEHKGWYSWVLSM | 2.77
LGCYAVYSNLYLEHKGWYSWVLSM | 3.39
LGCYAVYSWLYLEHKGWYSWVLSM | 2.7
LGCYAVYSRLYLEHKGWYSWVLSM | 2.18
LGCYAVYSCLYLEHKGWYSWVLSM | 2.03

Variant | protein stability index
LGCYAVYSPLYLEHKGWYSWVLSM | 4.54
LGCYAVYSDLYLEHKGWYSWVLSM | 3.48
LGCYAVYSILYLEHKGWYSWVLSM | 2.15
LGCYAVYSTLYLEHKGWYSWVLSM | 1.75
LGCYAVYSVLYLEHKGWYSWVLSM | 1.94
LGCYAVYSHLYLEHKGWYSWVLSM | 1.71
LGCYAGYSLLYLEHKGWYSWVLSM | 2.72
LGCYAFYSLLYLEHKGWYSWVLSM | 3.45
LGCYAAYSLLYLEHKGWYSWVLSM | 3.13
LGCYADYSLLYLEHKGWYSWVLSM | 3.58
LGCYACYSLLYLEHKGWYSWVLSM | 4.28
LGCYATYSLLYLEHKGWYSWVLSM | 2.61
LGCYAWYSLLYLEHKGWYSWVLSM | 1.84
LGCYANYSLLYLEHKGWYSWVLSM | 2.73
LGCYAIYSLLYLEHKGWYSWVLSM | 3.34
LGCYAPYSLLYLEHKGWYSWVLSM | 2.49
LGCYAMYSLLYLEHKGWYSWVLSM | 2.22
LGCYASYSLLYLEHKGWYSWVLSM | 2.76
LGCYARYSLLYLEHKGWYSWVLSM | 2.3
LGCYALYSLLYLEHKGWYSWVLSM | 3.28
LGCYAHYSLLYLEHKGWYSWVLSM | 2.31
LGCYAEYSLLYLEHKGWYSWVLSM | 2.84
LGCYAKYSLLYLEHKGWYSWVLSM | 2.83
LGCKAVYSLLYLEHKGWYSWVLSM | 3.58

Variant | protein stability index
LGCGAVYSLLYLEHKGWYSWVLSM | 3.18
LGCHAVYSLLYLEHKGWYSWVLSM | 2.69
LGCDAVYSLLYLEHKGWYSWVLSM | 1.9
LGCRAVYSLLYLEHKGWYSWVLSM | 2.91
LGCIAVYSLLYLEHKGWYSWVLSM | 1.89
LGCFAVYSLLYLEHKGWYSWVLSM | 2.33
LGCTAVYSLLYLEHKGWYSWVLSM | 3.11
LGCWAVYSLLYLEHKGWYSWVLSM | 2.19
LGCNAVYSLLYLEHKGWYSWVLSM | 3.2
LGCPAVYSLLYLEHKGWYSWVLSM | 3.14
LGCVAVYSLLYLEHKGWYSWVLSM | 3.14
LGCQAVYSLLYLEHKGWYSWVLSM | 2.4
LGCLAVYSLLYLEHKGWYSWVLSM | 3.04
LGCSAVYSLLYLEHKGWYSWVLSM | 3.75
LGCCAVYSLLYLEHKGWYSWVLSM | 3.33
LGCMAVYSLLYLEHKGWYSWVLSM | 3.4
LGCYAVYSLLGLEHKGWYSWVLSM | 4.08
LGCYAVYSLLELEHKGWYSWVLSM | 3.13
LGCYAVYSLLPLEHKGWYSWVLSM | 2.2
LGCYAVYSLLFLEHKGWYSWVLSM | 3.26
LGCYAVYSLLMLEHKGWYSWVLSM | 2.05
LGCYAVYSLLKLEHKGWYSWVLSM | 2.63
LGCYAVYSLLSLEHKGWYSWVLSM | 1.87
LGCYAVYSLLNLEHKGWYSWVLSM | 2

Variant | protein stability index
LGCYAVYSLLDLEHKGWYSWVLSM | 2.36
LGCYAVYSLLILEHKGWYSWVLSM | 3
LGCYAVYSLLQLEHKGWYSWVLSM | 3.22
LGCYAVYSLLTLEHKGWYSWVLSM | 2.69
LGCYAVYSLLHLEHKGWYSWVLSM | 2.09
LGCYAVYSLLWLEHKGWYSWVLSM | 2.68
LGCYAVYSLLYLEVKGWYSWVLSM | 2.52
LGCYAVYSLLYLESKGWYSWVLSM | 2.43
LGCYAVYSLLYLELKGWYSWVLSM | 2.4
LGCYAVYSLLYLEGKGWYSWVLSM | 2.4
LGCYAVYSLLYLEFKGWYSWVLSM | 3.12
LGCYAVYSLLYLEQKGWYSWVLSM | 3.42
LGCYAVYSLLYLETKGWYSWVLSM | 3.37
LGCYAVYSLLYLECKGWYSWVLSM | 2.45
LGCYAVYSLLYLEPKGWYSWVLSM | 2.6
LGCYAVYSLLYLERKGWYSWVLSM | 2.22
LGCYAVYSLLYLEMKGWYSWVLSM | 2.53
LGCYAVYSLLYLEWKGWYSWVLSM | 3.16
LGCYAVYSLLYLEAKGWYSWVLSM | 3.68
LGCYAVYSLLYLENKGWYSWVLSM | 2.58
LGCYAVYSLLYLEDKGWYSWVLSM | 2.41
LGCYAVYSLLYLEYKGWYSWVLSM | 3.4
LGCYAVYSLLYLEIKGWYSWVLSM | 2.44
LGCYAVYSLLYLEHLGWYSWVLSM | 3.23

Variant | protein stability index
LGCYAVYSLLYLEHCGWYSWVLSM | 2.9
LGCYAVYSLLYLEHTGWYSWVLSM | 4.26
LGCYAVYSLLYLEHYGWYSWVLSM | 2.57
LGCYAVYSLLYLEHIGWYSWVLSM | 2.89
LGCYAVYSLLYLEHHGWYSWVLSM | 3.75
LGCYAVYSLLYLEHSGWYSWVLSM | 2.73
LGCYAVYSLLYLEHMGWYSWVLSM | 3.9
LGCYAVYSLLYLEHPGWYSWVLSM | 3.92
LGCYAVYSLLYLEHGGWYSWVLSM | 1.81
LGCYAVYSLLYLEHQGWYSWVLSM | 1.25
LGCYAVYSLLYLEHWGWYSWVLSM | 2.46
LGCYAVYSLLYLEHNGWYSWVLSM | 3.11
LGCYAVYSLLYLEHAGWYSWVLSM | 1.32
LGCYAVYSLLYLEHFGWYSWVLSM | 2.41
LGCYAVYSLLYLEHVGWYSWVLSM | 2.65
LGCYAVYSLCYLEHKGWYSWVLSM | 2.87
LGCYAVYSLAYLEHKGWYSWVLSM | 2.39
LGCYAVYSLKYLEHKGWYSWVLSM | 3.39
LGCYAVYSLWYLEHKGWYSWVLSM | 2.32
LGCYAVYSLRYLEHKGWYSWVLSM | 1.94
LGCYAVYSLPYLEHKGWYSWVLSM | 2.45
LGCYAVYSLTYLEHKGWYSWVLSM | 2.74
LGCYAVYSLQYLEHKGWYSWVLSM | 3.9
LGCYAVYSLMYLEHKGWYSWVLSM | 2.82

Variant | protein stability index
LGCYAVYSLIYLEHKGWYSWVLSM | 3.43
LGCYAVYSLGYLEHKGWYSWVLSM | 3.1
LGCYAVYSLHYLEHKGWYSWVLSM | 2.84
LGCYAVYSLYYLEHKGWYSWVLSM | 2.5
LGCYAVYSLFYLEHKGWYSWVLSM | 3.57
LGCYAVYSLSYLEHKGWYSWVLSM | 1.76
LGCYAVYSLNYLEHKGWYSWVLSM | 3.35
LGCYAVYSLDYLEHKGWYSWVLSM | 3.21
LGCYAVCSLLYLEHKGWYSWVLSM | 3.42
LGCYAVDSLLYLEHKGWYSWVLSM | 3.78
LGCYAVFSLLYLEHKGWYSWVLSM | 3.72
LGCYAVPSLLYLEHKGWYSWVLSM | 3.71
LGCYAVRSLLYLEHKGWYSWVLSM | 2.82
LGCYAVNSLLYLEHKGWYSWVLSM | 5.04
LGCYAVISLLYLEHKGWYSWVLSM | 3.09
LGCYAVWSLLYLEHKGWYSWVLSM | 3.23
LGCYAVMSLLYLEHKGWYSWVLSM | 3.54
LGCYAVKSLLYLEHKGWYSWVLSM | 2.19
LGCYAVHSLLYLEHKGWYSWVLSM | 2.13
LGCYAVVSLLYLEHKGWYSWVLSM | 3.4
LGCYAVESLLYLEHKGWYSWVLSM | 2.54
LGCYAVQSLLYLEHKGWYSWVLSM | 2.39
LGCYAVYSLLYLGHKGWYSWVLSM | 1.95
LGCYAVYSLLYLIHKGWYSWVLSM | 4.56

Variant | protein stability index
LGCYAVYSLLYLFHKGWYSWVLSM | 3.1
LGCYAVYSLLYLDHKGWYSWVLSM | 2.51
LGCYAVYSLLYLYHKGWYSWVLSM | 2.12
LGCYAVYSLLYLPHKGWYSWVLSM | 3.78
LGCYAVYSLLYLAHKGWYSWVLSM | 1.11
LGCYAVYSLLYLMHKGWYSWVLSM | 2.58
LGCYAVYSLLYLCHKGWYSWVLSM | 2.64
LGCYAVYSLLYLLHKGWYSWVLSM | 3.4
LGCYAVYSLLYLTHKGWYSWVLSM | 3.83
LGCYAVYSLLYLHHKGWYSWVLSM | 3.66
LGCYLVYSLLYLEHKGWYSWVLSM | 4.56
LGCYFVYSLLYLEHKGWYSWVLSM | 3.69
LGCYNVYSLLYLEHKGWYSWVLSM | 4.03
LGCYTVYSLLYLEHKGWYSWVLSM | 2.57
LGCYEVYSLLYLEHKGWYSWVLSM | 3.12
LGCYKVYSLLYLEHKGWYSWVLSM | 2.91
LGCYMVYSLLYLEHKGWYSWVLSM | 2
LGCYWVYSLLYLEHKGWYSWVLSM | 4.06
LGCYHVYSLLYLEHKGWYSWVLSM | 2.82
LGCYCVYSLLYLEHKGWYSWVLSM | 3.34
LGCYSVYSLLYLEHKGWYSWVLSM | 3.5
LGCYIVYSLLYLEHKGWYSWVLSM | 3.28
LGCYDVYSLLYLEHKGWYSWVLSM | 2.12
LGCYRVYSLLYLEHKGWYSWVLSM | 2.43

Variant | protein stability index
LGCYAVYSLLYLEHKAWYSWVLSM | 4.05
LGCYAVYSLLYLEHKDWYSWVLSM | 2.47
LGCYAVYSLLYCEHKGWYSWVLSM | 2.68
LGCYAVYSLLYPEHKGWYSWVLSM | 3.25
LGCYAVYSLLYTEHKGWYSWVLSM | 2.14
LGCYAVYSLLYVEHKGWYSWVLSM | 2.89
LGCYAVYSLLYNEHKGWYSWVLSM | 4.59
LGCYAVYSLLYSEHKGWYSWVLSM | 2.02
LGCYAVYSLLYDEHKGWYSWVLSM | 2.74
LGCYAVYSLLYMEHKGWYSWVLSM | 4.09
LGCYAVYSLLYREHKGWYSWVLSM | 4.16
LGCYAVYSLLYFEHKGWYSWVLSM | 3.31
LGCYAVYSLLYQEHKGWYSWVLSM | 3.59
LGCYAVYSLLYYEHKGWYSWVLSM | 2.43
LGCYAVYSLLYWEHKGWYSWVLSM | 2.4
LGCYAVYSLLYGEHKGWYSWVLSM | 3.12
LGCYAVYSLLYEEHKGWYSWVLSM | 3.57
LGCYAVYSLLYIEHKGWYSWVLSM | 3.36
LGCYAVYSLLYHEHKGWYSWVLSM | 2.99
LGCYAVYSLLYKEHKGWYSWVLSM | 3.11
